Laboratory results as given in paper PMC2814788.

Biological target: C-terminally myc-tagged Sec8 (Sec8-myc) (S. cerevisiae) (UniProt P32855)
Experiment: co-IP

UniProt P32855, sequence (P32855 whole entry): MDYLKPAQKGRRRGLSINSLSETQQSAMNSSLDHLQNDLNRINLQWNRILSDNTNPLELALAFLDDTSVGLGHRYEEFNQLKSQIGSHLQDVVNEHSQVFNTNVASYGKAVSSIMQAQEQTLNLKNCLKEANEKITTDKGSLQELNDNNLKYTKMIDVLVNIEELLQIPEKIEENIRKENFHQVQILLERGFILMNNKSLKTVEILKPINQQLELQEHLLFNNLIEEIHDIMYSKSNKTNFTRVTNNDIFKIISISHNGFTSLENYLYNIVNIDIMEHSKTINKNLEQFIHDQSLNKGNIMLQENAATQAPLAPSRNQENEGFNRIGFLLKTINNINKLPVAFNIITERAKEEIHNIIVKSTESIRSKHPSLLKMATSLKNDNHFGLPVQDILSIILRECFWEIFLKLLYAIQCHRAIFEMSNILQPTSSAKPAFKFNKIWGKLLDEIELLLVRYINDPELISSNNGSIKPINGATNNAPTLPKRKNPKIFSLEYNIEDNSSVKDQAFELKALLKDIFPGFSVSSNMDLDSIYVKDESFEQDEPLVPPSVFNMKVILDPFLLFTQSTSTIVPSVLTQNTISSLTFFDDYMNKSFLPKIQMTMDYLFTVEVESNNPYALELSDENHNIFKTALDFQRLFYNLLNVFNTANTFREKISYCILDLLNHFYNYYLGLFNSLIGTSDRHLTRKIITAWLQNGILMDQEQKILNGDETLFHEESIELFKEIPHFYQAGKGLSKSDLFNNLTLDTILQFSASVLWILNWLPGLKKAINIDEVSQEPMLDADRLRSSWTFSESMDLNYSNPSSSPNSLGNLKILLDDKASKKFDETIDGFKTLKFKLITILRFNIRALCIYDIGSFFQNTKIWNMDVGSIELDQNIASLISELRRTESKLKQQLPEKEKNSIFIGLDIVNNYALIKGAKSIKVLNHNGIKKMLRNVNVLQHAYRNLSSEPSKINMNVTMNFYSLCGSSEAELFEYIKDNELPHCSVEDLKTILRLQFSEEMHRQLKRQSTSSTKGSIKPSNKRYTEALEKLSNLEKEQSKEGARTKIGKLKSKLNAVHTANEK

## Exo70-E557K (gain-of-function mutant, in yeast lysate) (from UniProt P19658 63-623) (natural protein)
  reduction of coprecipitated Exo70 against wild type: 25%
